Assay results from patent US20200079833A1 (AstraZeneca / MedImmune, published 2020).
Starred links: 1 amine or outer side, 2 acyl side, 3 side chain; linkers in the order of their positions; H or OH if unused. Non-standard residues stand in square brackets, D forms with d. Groups on a side chain read outwards from the residue. Primed or numbered codes have the meaning given here. No end group written: not given here. *: point of attachment. γGlu = O=C(O)[C@H](CCC(=O)[*:2])N[*:1]; Stearoyl = CCCCCCCCCCCCCCCCCC(=O)*; Palmitoyl = CCCCCCCCCCCCCCCC(=O)*; αMeF = C[C@](N)(Cc1ccccc1)C(=O)O; αMeK = C[C@](N)(CCCCN)C(=O)O; αMeS = C[C@](N)(CO)C(=O)O; PEG2′ = not defined here; Aib = CC(C)(N)C(=O)O

T1: glucose-dependent insulinotropic peptide (gastric inhibitory polypeptide) receptor (human, UniProt P48546 22-466)
T1 sequence (looked up): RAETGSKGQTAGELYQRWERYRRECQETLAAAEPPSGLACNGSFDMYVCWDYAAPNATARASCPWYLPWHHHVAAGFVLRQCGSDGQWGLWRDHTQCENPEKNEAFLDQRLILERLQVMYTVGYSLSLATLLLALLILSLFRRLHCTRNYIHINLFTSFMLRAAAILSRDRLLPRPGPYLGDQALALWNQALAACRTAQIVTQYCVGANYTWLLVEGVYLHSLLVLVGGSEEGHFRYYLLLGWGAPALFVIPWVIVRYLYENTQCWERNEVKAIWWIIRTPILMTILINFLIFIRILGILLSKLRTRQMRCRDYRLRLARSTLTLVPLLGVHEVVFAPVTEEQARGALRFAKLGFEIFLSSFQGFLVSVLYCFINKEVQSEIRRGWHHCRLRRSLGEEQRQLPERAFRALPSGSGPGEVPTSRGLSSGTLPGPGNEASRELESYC


Experiments:
Assay in all cases: cell-based or functional assay
[1] = target: GLP-1 receptor (human, UniProt P43220 24-463)
[2] = target: glucagon receptor (human, UniProt P47871 26-477)
[3] = target: T1, glucose-dependent insulinotropic …

Sequence of glucagon receptor (P47871 26-477): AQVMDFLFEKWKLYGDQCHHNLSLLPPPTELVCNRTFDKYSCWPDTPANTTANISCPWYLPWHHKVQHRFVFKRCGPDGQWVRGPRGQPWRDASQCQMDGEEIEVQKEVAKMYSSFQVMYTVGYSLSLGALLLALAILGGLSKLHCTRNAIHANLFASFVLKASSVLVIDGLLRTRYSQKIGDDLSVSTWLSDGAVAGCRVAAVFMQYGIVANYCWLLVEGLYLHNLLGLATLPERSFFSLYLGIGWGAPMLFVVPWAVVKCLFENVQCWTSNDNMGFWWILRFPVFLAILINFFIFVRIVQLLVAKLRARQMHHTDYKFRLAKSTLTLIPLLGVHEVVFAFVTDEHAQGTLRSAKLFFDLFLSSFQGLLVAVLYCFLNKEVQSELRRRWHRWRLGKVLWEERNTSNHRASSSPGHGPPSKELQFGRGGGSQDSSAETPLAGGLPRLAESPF

Binder	Primary assay EC50 (cAMP), Mean pM GLP-1R [1] [pM]	Primary assay EC50 (cAMP), n1 [1] [nM]	Primary assay EC50 (cAMP), n2 [1] [nM]	Primary assay EC50 (cAMP), n1 [2] [nM]	Primary assay EC50 (cAMP), n2 [2] [nM]	Primary assay EC50 (cAMP), n1 [3] [nM]	Primary assay EC50 (cAMP), n2 [3] [nM]
H[Aib]EGS[αMeF]TSDV[αMeS]S[αMeF]LEGEAA[αMeK]E[αMeF]IA[αMeF]VVEGG-NH2 (N-terminus assumed; SMILES CC[C@H](C)[C@H](NC(=O)[C@](C)(Cc1ccccc1)NC(=O)[C@H](CCC(=O)O)NC(=O)[C@](C)(CCCCN)NC(=O)[C@H](C)NC(=O)[C@H](C)NC(=O)[C@H](CCC(=O)O)NC(=O)CNC(=O)[C@H](CCC(=O)O)NC(=O)[C@H](CC(C)C)NC(=O)[C@](C)(Cc1ccccc1)NC(=O)[C@H](CO)NC(=O)[C@](C)(CO)NC(=O)[C@@H](NC(=O)[C@H](CC(=O)O)NC(=O)[C@H](CO)NC(=O)[C@@H](NC(=O)[C@](C)(Cc1ccccc1)NC(=O)[C@H](CO)NC(=O)CNC(=O)[C@H](CCC(=O)O)NC(=O)C(C)(C)NC(=O)[C@@H](N)Cc1c[nH]cn1)[C@@H](C)O)C(C)C)C(=O)N[C@@H](C)C(=O)N[C@@](C)(Cc1ccccc1)C(=O)N[C@H](C(=O)N[C@H](C(=O)N[C@@H](CCC(=O)O)C(=O)NCC(=O)NCC(N)=O)C(C)C)C(C)C) [SEQ ID NO 43]	0.6	0.00045	0.00071	31	31	31	31
H[Aib]EGS[αMeF]TDDV[αMeS]S[αMeF]LEGEAAK([PEG2′-PEG2′-γGlu-Stearoyl])E[αMeF]IA[αMeF]VV[αMeK]GG-NH2 [SEQ ID NO 36]	44200	63	25	84	25	84	25
H[Aib]EGS[αMeF]TDDV[αMeS]S[αMeF]LEGEAAK([γGlu-Palmitoyl])E[αMeF]IA[αMeF]VV[αMeK]GG-NH2 (N-terminus assumed; SMILES CCCCCCCCCCCCCCCC(=O)N[C@@H](CCC(=O)NCCCC[C@H](NC(=O)[C@H](C)NC(=O)[C@H](C)NC(=O)[C@H](CCC(=O)O)NC(=O)CNC(=O)[C@H](CCC(=O)O)NC(=O)[C@H](CC(C)C)NC(=O)[C@](C)(Cc1ccccc1)NC(=O)[C@H](CO)NC(=O)[C@](C)(CO)NC(=O)[C@@H](NC(=O)[C@H](CC(=O)O)NC(=O)[C@H](CC(=O)O)NC(=O)[C@@H](NC(=O)[C@](C)(Cc1ccccc1)NC(=O)[C@H](CO)NC(=O)CNC(=O)[C@H](CCC(=O)O)NC(=O)C(C)(C)NC(=O)[C@@H](N)Cc1c[nH]cn1)[C@@H](C)O)C(C)C)C(=O)N[C@@H](CCC(=O)O)C(=O)N[C@@](C)(Cc1ccccc1)C(=O)N[C@H](C(=O)N[C@@H](C)C(=O)N[C@@](C)(Cc1ccccc1)C(=O)N[C@H](C(=O)N[C@H](C(=O)N[C@@](C)(CCCCN)C(=O)NCC(=O)NCC(N)=O)C(C)C)C(C)C)[C@@H](C)CC)C(=O)O) [SEQ ID NO 37]	4500	7.3	1.7	92	28	92	28
H[Aib]EGS[αMeF]TSDVSS[αMeF]LEGEAAKE[αMeF]IA[αMeF]VVKGGK([γGlu-Palmitoyl])-NH2 (N-terminus assumed; SMILES CCCCCCCCCCCCCCCC(=O)N[C@@H](CCC(=O)NCCCC[C@H](NC(=O)CNC(=O)CNC(=O)[C@H](CCCCN)NC(=O)[C@@H](NC(=O)[C@@H](NC(=O)[C@](C)(Cc1ccccc1)NC(=O)[C@H](C)NC(=O)[C@@H](NC(=O)[C@](C)(Cc1ccccc1)NC(=O)[C@H](CCC(=O)O)NC(=O)[C@H](CCCCN)NC(=O)[C@H](C)NC(=O)[C@H](C)NC(=O)[C@H](CCC(=O)O)NC(=O)CNC(=O)[C@H](CCC(=O)O)NC(=O)[C@H](CC(C)C)NC(=O)[C@](C)(Cc1ccccc1)NC(=O)[C@H](CO)NC(=O)[C@H](CO)NC(=O)[C@@H](NC(=O)[C@H](CC(=O)O)NC(=O)[C@H](CO)NC(=O)[C@@H](NC(=O)[C@](C)(Cc1ccccc1)NC(=O)[C@H](CO)NC(=O)CNC(=O)[C@H](CCC(=O)O)NC(=O)C(C)(C)NC(=O)[C@@H](N)Cc1c[nH]cn1)[C@@H](C)O)C(C)C)[C@@H](C)CC)C(C)C)C(C)C)C(N)=O)C(=O)O) [SEQ ID NO 39]	33	0.033	0.033	27	27	27	27
H[Aib]EGS[αMeF]TSDVSS[αMeF]LEGEAAKE[αMeF]IA[αMeF]VVKGGK([PEG2′-PEG2′-γGlu-Stearoyl])-NH2 [SEQ ID NO 38]	72	0.062	0.082	25	25	25	25
H[Aib]EGS[αMeF]TSDVSS[αMeF]LEGEAAK([γGlu-Palmitoyl])E[αMeF]IA[αMeF]VVKGG-NH2 (N-terminus assumed; SMILES CCCCCCCCCCCCCCCC(=O)N[C@@H](CCC(=O)NCCCC[C@H](NC(=O)[C@H](C)NC(=O)[C@H](C)NC(=O)[C@H](CCC(=O)O)NC(=O)CNC(=O)[C@H](CCC(=O)O)NC(=O)[C@H](CC(C)C)NC(=O)[C@](C)(Cc1ccccc1)NC(=O)[C@H](CO)NC(=O)[C@H](CO)NC(=O)[C@@H](NC(=O)[C@H](CC(=O)O)NC(=O)[C@H](CO)NC(=O)[C@@H](NC(=O)[C@](C)(Cc1ccccc1)NC(=O)[C@H](CO)NC(=O)CNC(=O)[C@H](CCC(=O)O)NC(=O)C(C)(C)NC(=O)[C@@H](N)Cc1c[nH]cn1)[C@@H](C)O)C(C)C)C(=O)N[C@@H](CCC(=O)O)C(=O)N[C@@](C)(Cc1ccccc1)C(=O)N[C@H](C(=O)N[C@@H](C)C(=O)N[C@@](C)(Cc1ccccc1)C(=O)N[C@H](C(=O)N[C@H](C(=O)N[C@@H](CCCCN)C(=O)NCC(=O)NCC(N)=O)C(C)C)C(C)C)[C@@H](C)CC)C(=O)O) [SEQ ID NO 41]	147	0.24	0.051	94	28	94	28

Further lines, results first:

Primary assay EC50 (cAMP), Mean pM GLP-1R [1] [pM]	Primary assay EC50 (cAMP), n1 [1] [nM]	Primary assay EC50 (cAMP), n2 [1] [nM]	Primary assay EC50 (cAMP), n1 [2] [nM]	Primary assay EC50 (cAMP), n2 [2] [nM]	Primary assay EC50 (cAMP), n1 [3] [nM]	Primary assay EC50 (cAMP), n2 [3] [nM]	Binder
8.7	0.0069	0.011	31	31	31	31	H[Aib]EGS[αMeF]TSDV[αMeS]S[αMeF]LEGEAAEE[αMeF]IA[αMeF]VV[αMeK]GG-NH2 (N-terminus assumed; SMILES CC[C@H](C)[C@H](NC(=O)[C@](C)(Cc1ccccc1)NC(=O)[C@H](CCC(=O)O)NC(=O)[C@H](CCC(=O)O)NC(=O)[C@H](C)NC(=O)[C@H](C)NC(=O)[C@H](CCC(=O)O)NC(=O)CNC(=O)[C@H](CCC(=O)O)NC(=O)[C@H](CC(C)C)NC(=O)[C@](C)(Cc1ccccc1)NC(=O)[C@H](CO)NC(=O)[C@](C)(CO)NC(=O)[C@@H](NC(=O)[C@H](CC(=O)O)NC(=O)[C@H](CO)NC(=O)[C@@H](NC(=O)[C@](C)(Cc1ccccc1)NC(=O)[C@H](CO)NC(=O)CNC(=O)[C@H](CCC(=O)O)NC(=O)C(C)(C)NC(=O)[C@@H](N)Cc1c[nH]cn1)[C@@H](C)O)C(C)C)C(=O)N[C@@H](C)C(=O)N[C@@](C)(Cc1ccccc1)C(=O)N[C@H](C(=O)N[C@H](C(=O)N[C@@](C)(CCCCN)C(=O)NCC(=O)NCC(N)=O)C(C)C)C(C)C) [SEQ ID NO 42]
6.7	0.0065	0.0069	31	31	31	31	H[Aib]EGS[αMeF]TSDV[αMeS]S[αMeF]LEGEAAEE[αMeF]IA[αMeF]VVEGG-NH2 (N-terminus assumed; SMILES CC[C@H](C)[C@H](NC(=O)[C@](C)(Cc1ccccc1)NC(=O)[C@H](CCC(=O)O)NC(=O)[C@H](CCC(=O)O)NC(=O)[C@H](C)NC(=O)[C@H](C)NC(=O)[C@H](CCC(=O)O)NC(=O)CNC(=O)[C@H](CCC(=O)O)NC(=O)[C@H](CC(C)C)NC(=O)[C@](C)(Cc1ccccc1)NC(=O)[C@H](CO)NC(=O)[C@](C)(CO)NC(=O)[C@@H](NC(=O)[C@H](CC(=O)O)NC(=O)[C@H](CO)NC(=O)[C@@H](NC(=O)[C@](C)(Cc1ccccc1)NC(=O)[C@H](CO)NC(=O)CNC(=O)[C@H](CCC(=O)O)NC(=O)C(C)(C)NC(=O)[C@@H](N)Cc1c[nH]cn1)[C@@H](C)O)C(C)C)C(=O)N[C@@H](C)C(=O)N[C@@](C)(Cc1ccccc1)C(=O)N[C@H](C(=O)N[C@H](C(=O)N[C@@H](CCC(=O)O)C(=O)NCC(=O)NCC(N)=O)C(C)C)C(C)C) [SEQ ID NO 44]
1170	1.8	0.57	85	26	85	26	H[Aib]EGS[αMeF]TSDVSS[αMeF]LEGEAAK([PEG2′-PEG2′-γGlu-Stearoyl])E[αMeF]IA[αMeF]VVKGG-NH2 [SEQ ID NO 40]
